Test results as given in patent publication US20060141582A1 (ZymoGenetics, published 2006).

T1: human IL-22RA on transfected cells (BaF3/IL-22RA/IL-20RB, BaF3/IL-22RA/CRF2-4, 293 or P815 cells) (human, UniProt Q8N6P7 16-574)
T1 construct: also called huIL-22RA; hIL-22RA
T1 sequence: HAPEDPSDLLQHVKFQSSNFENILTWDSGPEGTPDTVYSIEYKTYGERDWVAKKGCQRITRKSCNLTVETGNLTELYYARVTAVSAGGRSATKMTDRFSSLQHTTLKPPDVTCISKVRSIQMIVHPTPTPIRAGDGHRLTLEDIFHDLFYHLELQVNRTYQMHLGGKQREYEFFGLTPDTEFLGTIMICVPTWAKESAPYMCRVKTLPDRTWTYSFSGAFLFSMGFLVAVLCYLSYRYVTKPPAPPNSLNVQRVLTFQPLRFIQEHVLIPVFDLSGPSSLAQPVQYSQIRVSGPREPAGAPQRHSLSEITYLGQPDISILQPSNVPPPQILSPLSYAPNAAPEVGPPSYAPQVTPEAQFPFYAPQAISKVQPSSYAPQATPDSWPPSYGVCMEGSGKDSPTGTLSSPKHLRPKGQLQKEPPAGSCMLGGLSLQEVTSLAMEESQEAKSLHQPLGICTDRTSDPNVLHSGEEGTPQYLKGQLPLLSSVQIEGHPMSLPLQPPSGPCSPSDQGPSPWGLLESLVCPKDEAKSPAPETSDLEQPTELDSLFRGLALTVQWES


Experiments:
[1] = target: CRF2-4/IL-22RA heterodimeric receptor on BaF3 cells (BaF3/CRF2-4/IL-22RA cells) (human) (UniProt Q08334); test: cell-based or functional assay
Chain of CRF2-4/IL-22RA heterodimeric receptor on BaF3 cells (BaF3/CRF2-4/IL-22RA cells) (human) (Q08334 20-325 limits assumed, one chain of several): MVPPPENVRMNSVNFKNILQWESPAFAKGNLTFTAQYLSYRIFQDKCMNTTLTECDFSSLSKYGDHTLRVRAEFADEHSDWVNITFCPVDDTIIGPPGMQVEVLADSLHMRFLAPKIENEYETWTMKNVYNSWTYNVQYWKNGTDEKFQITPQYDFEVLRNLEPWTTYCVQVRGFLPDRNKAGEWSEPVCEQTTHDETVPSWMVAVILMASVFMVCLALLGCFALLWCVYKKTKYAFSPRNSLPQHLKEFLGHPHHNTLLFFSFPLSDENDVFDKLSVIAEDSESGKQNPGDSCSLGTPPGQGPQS

[2] = target: T1, human IL-22RA on transfected cells …; test: flow cytometry on P815 cells transfected with hIL-22RA, 5 ug/ml huIL-22-biotin; used to select the clone
Experimental: WT P815 Cells (ATCC No. TIB-64) were transfected with a plasmid vector containing the hIL-22RA cDNA sequence (e.g., SEQ ID NO:1) and a selectable puromycin-resistance marker, using Fugene Reagent according to the manufacturer's protocol (Roche, Indianapolis, Ind.). Cells were placed under Puromycin selection 48 hours following transfection. Puromycin-resistant transfectants were cloned by limiting dilution, and screened for their level of hIL-22RA cell surface expression by flow cytometry, using biotinylated human IL-22 (huIL-22-biotin). Briefly, cells were incubated with 5 ug/ml huIL-22-biotin for 30 minutes on ice and then washed. Binding of huIL-22-biotin to the cells was then detected using PE-labeled streptavidin at 1:500. Cells were analyzed on a Facscan flow cytometer using Cellquest software. (Becton Dickinson, San Jose, Calif.).

Molecule | proliferation of BaF3/CRF2-4/IL-22RA cells (Alamar Blue), fold induction at 0.06 ng/ml IL-22-CEE (fold induction) [1] | proliferation of BaF3/CRF2-4/IL-22RA cells (Alamar Blue), fold over background at 50 ng/ml IL-22-CEE (fold over background) [1] | binding result [2]
IL-22-CEE (IL-22 polypeptide containing C-terminal GluGlu (EE) tag), purified from BHK 570 cells (ligand) | 2 | 15 | –
biotinylated human IL-22 (ligand, biotinylated (sites not given), also called huIL-22-biotin) APISSHCRLDKSNFQQPYITNRTFMLAKEASLADNNTDVRLIGEKLFHGVSMSERCYLMKQVLNFTLEEVLFPQSDRFQPYMQEVVPFLARLSNRLSTCHIEGDDLHIQRNVQKLKDTVKKLGESGEIKAIGELDLLFMSLRNACI | – | – | binds
